Measured values taken from publication PMC3770614.

Target: nucleosomes decorated with both H3KC4me3 and H3K9ac or H3K14ac
Experiment: pull-down; 130 pmol recombinant nucleosome (biotinylated 601 Widom DNA, weak TATA) on magnetic streptavidin beads, 500 µg HeLa nuclear extract, 2–3 hours at 4°C; 20 mM HEPES pH 7.5, 150 mM NaCl, 0.2 mM EDTA, 20% glycerol, 0.1% NP-40, 1 mM DTT; no competitor DNA; immunoblot of eluted proteins

fold binding compared to H3KC4me3 alone: 1.2 to 1.4 fold
Substance: TFIID complex (from UniProt P21675 1-1893; Q6P1X5 1-1199; Q5VWG9 1-929; O00268 1-1085; Q15542 1-800; P49848 1-677; Q15545 1-349; Q7Z7C8 1-310; Q16594 1-264; Q12962 1-218; Q15544 1-211; Q16514 1-161; Q15543 1-124; P20226 1-339)
